PMC4609290

Target: H3(15-34) peptide (UniProt P68431)
Experiment: ITC

Kd: 5 µM
Substance: AF10PZP (as used for ITC) (from UniProt P55197-1 1-208) (domain or fragment)
